Values of other authors in article PMC3985519.

Molecular target: von Willebrand factor (Homo sapiens) (UniProt P04275)

Kd: 500 pM
Substance: Factor VIII (from UniProt P00451)
